Paper PMC10849721 (bioRxiv, 2024)

B1: Kv2.2 (natural protein)
chain: MAEKAPPGLNRKTSRSTLSLPPEPVDIIRSKTCSRRVKINVGGLNHEVLWRTLDRLPRTRLGKLRDCNTHESLLEVCDDYNLNENEYFFDRHPGAFTSILNFYRTGKLHMMEEMCALSFGQELDYWGIDEIYLESCCQARYHQKKEQMNEELRREAETMREREGEEFDNTCCPEKRKKLWDLLEKPNSSVAAKILAIVSILFIVLSTIALSLNTLPELQENDEFGQPSDNRKLAHVEAVCIAWFTMEYLLRFLSSPNKWKFFKGPLNVIDLLAILPYYVTIFLTESNKSVLQFQNVRRVVQIFRIMRILRILKLARHSTGLQSLGFTLRRSYNELGLLILFLAMGIMIFSSLVFFAEKDEDATKFTSIPASFWWATITMTTVGYGDIYPKTLLGKIVGGLCCIAGVLVIALPIPIIVNNFSEFYKEQKRQEKAIKRREALERAKRNGSIVSMNLKDAFARSMELIDVAVEKAGESANTKDSVDDNHLSPSRWKWARKALSETSSNKSYENKYQEVSQNDSHEHLNNTSSSSPQHLSAQKLEMLYNEITKTQPHSHPNPDCQEQPERPCVYEEEIEMEEVICPQEQLAVAQTEVIVDMKSTSSIDSFTSCATDFTETERSPLPPPSASHLQMKFPTDLPGTDEHQRARAPPFLTLSRDKGPAAREAAVDYAPIDITVNLDAGASHGPLQPDSASDSPKSSLKGSNPLKSRSLKVNFQENRASAPQTPPSTARPLPVTTADFPLTTPQHMSTILLEEALPQGQPPLLEADDSAHCQGPSKGFSPRFPKQKLFPFSSRERRSFTEIDTGEDEDFLDLQRSRPDKQADPSPNCLADKPGDARDSLREEGCVGSSSPQNTDHNCRQDIYQAVGEVKKDSSQEGYKMENHLFAPEIHSNPGDTGHCPTRETSM
B2: Kv5.1 (natural protein)
chain: MDASAEQSLPEPGSQDSVAGEDIEIVVNVGGVRQVLYGDLLSQYPETRLAELINCLAGGYDTIFSLCDDYDPGKREFYFDRDPDAFKCVIEVYYFGEVHMKKGICPICFKNEMDFWKVDLKFLDDCCKSHLSEKREELEEIARRVQLILDDLGVDAAEGRWRRCQKCVWKFLEKPESSCPARVVAVLSFLLILVSSVVMCMGTIPELQVVDSEGNRVEHPTLENVETACIGWFTLEYLLRLFSSPNKLHFALSFMNIVDVLAILPFYVSLTLTHLGARMMELTNVQQAVQALRIMRIARIFKLARHSSGLQTLTYALKRSFKELGLLLMYLAVGIFVFSALGYTMEQSHPETLFKSIPQSFWWAIITMTTVGYGDIYPKTTLGKLNAAISFLCGVIAIALPIHPIINNFVRYYNKQRVLETAAKHELELMELNSSSAEGKPGGSRSDLDTLPPEPAAREGPSWGSRLKLSHSDTFIPLLTEEKHHRTRLQSCK

Assays:
Kv5.1 = molecular target: B2; assay: co-IP
Kv2.2 = molecular target: B1; assay: co-IP

Binder	percent co-IPed, relative to the subunit's own IP (Kv5.1) [%]	percent co-IPed, relative to the subunit's own IP (Kv2.2) [%]
B1	7.4	
B2		31
